Source: the nanobody polyreactivity screen of Harvey et al. (2022)

Assay: yeast display, Sf9 membrane polyspecificity reagent, FACS + sequencing; frameworks hold sequencing errors
Outline: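 Using colony PCR, genes from sorted yeast display clones were amplified, then sequenced on MiSeq at 2 × 250 and filtered by CDR length. The clones had been stained with 10% biotinylated, detergent-solubilized Sf9 membrane reagent for 1 hour at 4 °C and sorted by FACS into low and high (top ~1%) gates on anti-HA and streptavidin fluorescence. Polyreactivity labels come from the gate of origin.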

Row | Sequence | polyreactivity (PSR sort gate)
1 | QVQLVESGGGLVQAGGSLRLSCAASGRIFYGYARGWYRQAPGKERELVATITWSGGSTYYADSVKGRFTISRDNAKNTVYLQMNSLNPEDTAVYYCAAYSPYIYQAYRYDYWGQGTQVTVSS | low polyreactivity
2 | QVQLVESGGGLVQAGGSLRLSCAASGRIFYGYTMGWARQAPGKERQLVAAITWSGGSTYYADSVKGRFTISRDNAKYSVYLQMNSLKPKDTAVYYCAATLGNAADYDYGYWGQGTQVTVSS | high polyreactivity
3 | QVQLVESGGGLVQAGGSLRLSCAASGRIFYGYTMGWYRQAPGKERELVASITIRGSRTYYADSVKGRFTISRDNAKNSVYLQMNSLKPEDTAVYYCAADFVPARTVHRYDYWGQGTQVTVSS | low polyreactivity
4 | QVQLVESGGGLVQAGGSLRLSCAASGRIFYGYVMGWYRQAPGKETELVAAMTWSGSRTYYADSVKGRFTISRDNAKNTVYLQMNSLKPEDTAVYYCAARIPSDGYSYWGQVTQVTVSS | high polyreactivity
5 | QVQLVESGGGLVQAGGSLRLSCAASGRIFYHNTMGWYRQAPGKEREFVAAISKRGGNTYYADSVKGRFTISRDNAKNTVYLQMNSLKPEDTAVYYCNRRNAWSRGEYWGQGTQVTVSS | high polyreactivity
6 | QVQLVESGGGLVQAGGSLRLSCAASGRIFYKYVMGWDRQAPGKERELVADINRSGGTTYYADSVKGRFTISRDNAKNTVYLQMNSLKPEDTAVYYCTATLPDYWPYYYYQGGDDYWGQGTQVNVSS | low polyreactivity
7 | QVQLVESGGGLVQAGGSLRLSCAASGRIFYLNAMGWYRQAPGKERELVAVITGNAGSTYYADSVKGRFTISRDNAKNTVYLQMNSLKPEDTAVYYCNALRLVPWSDALYDYWGQGTQVTVSS | low polyreactivity
8 | QVQLVESGGGLVQAGGSLRLSCAASGRIFYLYAMGWYRQAPGKERELVAAISVSGARTYYADSVKGRFTISRDNAKNNVYLQMNSLKPEDTAVYYCATVGPYRSRRAGDYWGQGTQVTVSS | high polyreactivity
9 | QVQLVESGGGLVQAGGSLRLSCAASGRIFYLYAMGWYRQAPGKERELVAAITWSGGSTTYADSVKGRFTISRDNAKNTVYLQMNSLKPEDTAVYYCNADGWIFPSFSPMDYWGQGTQVTVSS | low polyreactivity
10 | QVQLVESGGGLVQAGGSLRLSCAASGRIFYLYAMGWYRQAPGKERELVATISGSGGSTYYADSVKGRFTISRDNAKNTVYLLMISLKPEDTAVYYCAAVSVSSWYDYWGQGTQVSVSS | low polyreactivity
11 | QVQLVESGGGLVQAGGSLRLSCAASGRIFYLYAMGWYRQAPGTEREMVAAITWSGGSTTYADSVKGRFTISRDNAKNTVYLQMNSLKPEDTAVYYCYADGWIFPSFSPMDYWGQGTQVTVSS | low polyreactivity
12 | QVQLVESGGGLVQAGGSLRLSCAASGRIFYLYARGWYRQAPGKERELVATISSSGGRTYYADSVKGRFTISRDNAKNTVYLQMNSLKPEDTAVYYCNAYGEDDGPYPFPGYNYWGQGTQVTVSS | low polyreactivity
13 | QVQLVESGGGLVQAGGSLRLSCAASGRIFYNYAMGWYRQAPGKETELVAAISGSGGSTYYADSVKGRFTISRDNAKNTVYLLMNSLKPEDTAVYYCSTSGQQYYSRNFDYWGQGTQVTVSS | low polyreactivity
14 | QVQLVESGGGLVQAGGSLRLSCAASGRIFYNYVMGWYRQAPGKERELVAAISSSGGSTYYADSVKGRFTISRDNAKNSVYLQMNSLKPEDTAVYYCSAETYQLTWVLYYYWGQGTQVTVSS | high polyreactivity
15 | QVQLVESGGGLVQAGGSLRLSCAASGRIFYPNAMGWYRQAPGKERELVAGISRSGGSTYYADSVKGRFTISRDNAKNTVYLQMNSLKPEVTAVFYCAARYYASDRHFRGDYWGQGTQVTVSS | low polyreactivity
16 | QVQLVESGGGLVQAGGSLRLSCAASGRIFYPYAMGWYRQAPGKERDLVAAIRRSGVDTYYADSVKGRFTISRDNAKNTVYLQMNSLKPEDTAVYYCNKDGGGDSYWYDYWGQGTQVTVSS | low polyreactivity
17 | QVQLVESGGGLVQAGGSLRLSCAASGRIFYPYAMGWYRQAPGKERELVAAIRWSSGNTRYADSVKGRFTISRDNAKNTVYLQMNSLKPEDTAVYYCAAPAVHILQTVSLTPRPLDYWGQGTQVTVSS | high polyreactivity
18 | QVQLVESGGGLVQAGGSLRLSCAASGRIFYPYAMGWYRQAPGKERELVAAISRSGGSTYYADTVKGRFTISRDNAKNTVYLQMNSLKPEDTAVYYCAAEVVYFYSDAHIGYVDYEYWGQGTQVTVSS | low polyreactivity
19 | QVQLVESGGGLVQAGGSLRLSCAASGRIFYPYAMGWYRQAPGKERELVALISWGGGSTYYADSVKGRFTISRDNAKNTVYLQMNSLKPEDTAVYYCAASYVGYWYRRGYGYWGQGTQVTVSS | high polyreactivity
20 | QVQLVESGGGLVQAGGSLRLSCAASGRIFYPYAMGWYRQAPGTERELVATITRTGSTYYADSVKGRFTISRDNAKNTVYLQMNSLKPEDTAVYDCAVQRSYVGPRQYNYWGQGTQVTVSS | high polyreactivity
21 | QVQLVESGGGLVQAGGSLRLSCAASGRIFYQYAMGWYRQAPGKERELVAAIRYRDDGTYYADSVKGRFTISRDNAKNTVYLQMNSLQPEDTAVYYCAAKQWGRYGYWGQGTQVTVSS | high polyreactivity
22 | QVQLVESGGGLVQAGGSLRLSCAASGRIFYRNAMGWYRQAPGKERELVAAISYSGGRTYYADSVKGRFTISRDNAKNTVYLQMNSLKPEDTAVFYCAARYAWGYVDPGDYWGQGTQVTVSS | high polyreactivity

Row | Sequence | polyreactivity (PSR sort gate)
23 | QVQLVESGGGLVQAGGSLRLSCAASGRIFYRNAMGWYRQAPGKERELVAAITSGGSTYYADSVKGRFTISRDNAKNTVYLQMNSLKPEDTAVYYCAAAYQRWFNRRDYWGQGTQVTVSS | high polyreactivity
24 | QVQLVESGGGLVQAGGSLRLSCAASGRIFYRYAMGWYRQAPGKERELVAAINKSGGSTYYADSVKGRFTISRDNGKNTVSLQMKSLKPEDTAVYYCTAVYYWYKGDYWGQGTQVTVSS | high polyreactivity
25 | QVQLVESGGGLVQAGGSLRLSCAASGRIFYRYAMGWYRQAPGKERELVAAIRSGGRTNYADSVKGRFTISRDNAKNTVYLQMNSLKPEDTAVYYCNAVWRYYRKRRAGDFGYWGQGTQVTVSS | low polyreactivity
26 | QVQLVESGGGLVQAGGSLRLSCAASGRIFYRYAMGWYRQAPGKERELVAAISRNGGSTNYADSVKGRFTISRDNAKNTVYLQMNSLKPEDTAVYYCAARPPTTRPYDYDYWGQGTQVTVSS | high polyreactivity
27 | QVQLVESGGGLVQAGGSLRLSCAASGRIFYRYAMGWYRQAPGKERELVAAISSAGSTNYADSVKGRFTISRDNAKNTVYLQMNSLKPEDTAVYYCNTVTRWVGKLEYWGQGTQVTVSS | high polyreactivity
28 | QVQLVESGGGLVQAGGSLRLSCAASGRIFYRYAMGWYRQAPGKERELVAAITRGGRTNYADSVKGRFTISRDNAQNTVYLQMNSLKPEDTAVYYCRPLWYGFDYWGQGTQVTVSS | high polyreactivity
29 | QVQLVESGGGLVQAGGSLRLSCAASGRIFYRYAMGWYRQAPGKERELVAGITRGGSTYYADSVKGRFTISRDNAKNTVYFQMNSLKPEDTAVYYCNVRWSPAGTGLLDYWGQGTQVTVSS | high polyreactivity
30 | QVQLVESGGGLVQAGGSLRLSCAASGRIFYRYAMGWYRQAPGKERELVATITNGGSTNYADSVKGRFTISRDNAKNTVYLQMNSLKPEDTAVYYCAARLPGYYGIGDYWGQGTQVTVSS | high polyreactivity
31 | QVQLVESGGGLVQAGGSLRLSCAASGRIFYRYAMGWYRQAPGKERELVAVISGGGTYYADSVKGRFTISRDNAKNTVYLQMNSLKPEDTAVYYCAADDGVSLVSPYYGGYDYWGQGTQVTVSS | low polyreactivity
32 | QVQLVESGGGLVQAGGSLRLSCAASGRIFYRYGMGWYRQAPGKERELVASITRGGSTYYADSVKGRFTISRDNAKNTVYLQMNSLKPEDTAVYYCATKSSAGYDYWGQGTQVTVSS | low polyreactivity
33 | QVQLVESGGGLVQAGGSLRLSCAASGRIFYRYSMGWYRQAPGKERELVAAIRYSGGTTYADSVKGRFTISRDNAKNTVYLQMNSLKPEDTAVYYCAARASLWGGFESWGQGTQVTVSS | high polyreactivity
34 | QVQLVESGGGLVQAGGSLRLSCAASGRIFYSNAMGWYRQAPGKERELVAAISGSTDSTYYADSVKGRFTISRDNAKNTVYLQMNSLKPEDTAVYYCAAADYWFYYGYYLTMDYWGQGTQVTVSS | low polyreactivity
35 | QVQLVESGGGLVQAGGSLRLSCAASGRIFYSNTMGWYRQAPGKERELVAAITWRGGRTHYADSVKGRLTISRDNAKNPVYLQMNSLTPEDTAVYYCAARYIPIQYPSYRTWGGYSWGQGTQVTVSS | high polyreactivity
36 | QVQLVESGGGLVQAGGSLRLSCAASGRIFYSNVMGWYRQAPGKERELVAAISGRTGGTYYADSVKGRFTISRDNAKNTVYLQMNSLKPEDTAVYYCAARVGWNKRRYDYWGQGTQVTVSS | low polyreactivity
37 | QVQLVESGGGLVQAGGSLRLSCAASGRIFYSYAMGWYRQAPGKERELDAAITRGGSTSYADSVKGRFTISRDNAKNTVYLQMNSLKPEDTAVYYCATRQFYSYWKYYYWGQGTQVTVSS | high polyreactivity
38 | QVQLVESGGGLVQAGGSLRLSCAASGRIFYSYAMGWYRQAPGKERELVAAITESGGSTNYADSVKGRFTISRDNAKNTVYLQMNSLKPEDTAVYYCNARYKLTFNLYNYWGQGTQVTVSS | low polyreactivity
39 | QVQLVESGGGLVQAGGSLRLSCAASGRIFYSYAMGWYRQAPGKERELVAAITRTGGNTYYADSVKGRFTISRDNAKNTVYLQMNSLKPEDTAVYYCNAEYWKEHYPEIYYSWGQGTQVTVSS | low polyreactivity
40 | QVQLVESGGGLVQAGGSLRLSCAASGRIFYSYAMGWYRQAPGKERELVAAITVSGGSTFYADSVKGRFTISRDNAKNTVYLQMNSLKPEDTAVYYCAATRFSQYDWGQGTQVTVSS | high polyreactivity
41 | QVQLVESGGGLVQAGGSLRLSCAASGRIFYSYAMGWYRQAPGKERELVARISSGGSTNYADSVKGRFTISRDNAKNTVYLQMNSLKPEDTAVYYCAAATIWSGVHYGYWGQGTQVNVSS | low polyreactivity
42 | QVQLVESGGGLVQAGGSLRLSCAASGRIFYSYAMGWYRQAPGKERELVATISSGGSTNYADSVKGRFTISRDNAKNTVYLQMNSLKPEDTAVYYCARDSTYSSYTSNDYWGQGTQVTVSS | high polyreactivity
43 | QVQLVESGGGLVQAGGSLRLSCAASGRIFYSYAMGWYRQAPGKERELVATITNGGSTNYADSVKGRFTMSRDNAKNTVYLQMNSLKPEDTAVYYCAKRSFRYASALVRYPPGYYWGQGTQVTVSS | high polyreactivity
